Source: US20230002757A1 (ZHEJIANG NANOMAB TECHNOLOGY CENTER, published 2023)

T1: BCMA on RPMI8226 cells (UniProt Q02223 1-184, limits assumed)
T1 construct: whole, on cells
T1 sequence (looked up): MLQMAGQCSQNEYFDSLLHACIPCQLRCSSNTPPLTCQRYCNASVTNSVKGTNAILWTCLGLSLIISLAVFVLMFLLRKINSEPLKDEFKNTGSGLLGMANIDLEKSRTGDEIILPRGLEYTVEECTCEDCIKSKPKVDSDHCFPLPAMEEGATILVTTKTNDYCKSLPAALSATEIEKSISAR

T2: BCMA-Fc (human, UniProt Q02223 1-54)
T2 construct: coating antigen, 1 ug/mL; also called Fc-conjugated human BCMA; not shown: Fc
T2 sequence (looked up): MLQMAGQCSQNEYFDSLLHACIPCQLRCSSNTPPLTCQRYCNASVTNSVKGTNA

T3: BCMA-His (human, UniProt Q02223 1-54)
T3 construct: coating antigen, 1 ug/mL; also called His-conjugated human BCMA; not shown: His tag
T3 sequence (looked up): T2 sequence (looked up)

B1: NBL507-A1L1-P1R2-1D2-(9)-PME207-SEQF_A02 (VHH)
VHH: QVQLVESGGGLVQPGGSLRLSCAASGFTFSSSAMSWARQAPGKGLECVSDIYPDGTSSYADSMKGRFTISRDNTRNTMYLQMNVLKPEDTATYYCVIGRGGYAMGDRRLRGQGTQVTVSS
notes: purified VHH
B2: NBL507-A1L1-P1R2-1B6-(31)-PME207-SEQF_G04 (VHH)
VHH: QVQLVESGGGLVQPGGSLRLSCAASGFTFSPSAMSWARQAPGKGLEWVSGIYSDGSTYYRDSVKGRFTISRDNARNMVYLQMNSLKPEDTAVYYCALGAMREGVYSDLLGQGTQVTVSS
notes: purified VHH
B3: 504#SS12 (Fc fusion, not shown: a dimerising Fc or GST; small tags and cut ends)
VHH: EVQVVESGGGLVQPGGSLRLSCAVSGRGFSEHAMGWYRQSPGKQREFVAGVTSYGGTNYADSVKGRFTISRDNVGNTVFLQMNSLKPEDTAVYYCNYKRGHYPDGVSTYEYWGQGTQVTVSS
notes: VHH-FC construct from HEK293 cells
B4: NBL507-A1L1-P1R2-1A1-(1)-PME207-SEQF_A01 (VHH)
VHH: EVQLVESGGGLVQPGGSLRLSCAASGFTFRSSAMSWARQAPGKGLEWVSDIYPDGRTDYADSIKGRFTMSRDNAKNTVYLLMDSLKPEDTAVYHCQVGRYVSGVYYQPRGQGTQVTVSS
notes: purified VHH; also called lAl
B5: NBL507-A1L1-P1R2-1B8-(44)-PME207-SEQF_D06 (VHH)
VHH: QVQLVESGGGLVQPEGSLRLSCAASGSIFSIYAMGWYRQAPGKQRGLVAAITSGGDTFYADSVKGRFTISRDNARNTVYLQMNNLKSEDTAVYDCNGAPWGDHAPLVASWGQGTQVTVSS
notes: purified VHH
B6: 504#SS9 (Fc fusion)
VHH: EVQLQESGGGLVQAGGSLRLSCAASGRSFSGYAMAWFRQAPGKEREFVAAVNWNGGSTYYADSVKGRFTISRDNAKDTVYLQMNSLKPEDTAVYYCNARPTFGAYYSDYKSGVDYWGQGTQVTVSS
notes: VHH-FC construct from HEK293 cells; not shown: The (G4S)3 linker leading to it is left out with it
B7: 504#SS8 (Fc fusion)
VHH: EVQVVESGGGLVQAGGSLRLSCTASGRTFSNYAMGWFRQAPGKEREFVASVTWGGSGTFYADSVKGRFTISRDNIKNTVYLQMNSLKPEDTAVYYCAADNVGDSWYSDDYKYWGQGTQVTVSS
notes: as for B6
B8: 504#SS7 (Fc fusion)
VHH: QVQLVESGGGLVQAGGSLTLSCAASGRTFNSYAMGWFRQAPGKEREFVAAISQNGGSQGYAEAVKDRFTISRDNTNKVVALQMNSLKPEDTAAYYCAADGDASDRSYAPPRDYKYEYWGQGTQVTVSS
notes: as for B6
B9: 504#SS10 (Fc fusion, not shown: a dimerising Fc or GST; small tags and cut ends)
VHH: EVQLVESGGGLVQPGASLRLSCTASGSIFSIYAMGWYRQAPGKQRELVAYITSGGSTTYADSVKGRFTISRDNAKNTVYLQMNSLKPEDTAVYYCNRGNYYRDYKPEFWGQGTQVTVSS
notes: as for B3
B10: NBL507-A2L1-P1R2-1C1-(273)-PME207-SEQF_E11 (VHH)
VHH: QVQLVESGGGLVHPGGSLRLDCAVSERIASFNVMGWYRQAPGQQREVVATITSVGRTYYADSVKGRFTIAKDNDKNTYLQMNSLKPEDTAVYYCKAVIVGTYDTEYWGQGTLVTVSS
notes: purified VHH
B11: NBL507-A1L1-P1R2-1E2-(10)-PME207-SEQF_B02 (VHH)
VHH: EVQLVESGGGLVQPGGSLRLSCAASGSISSIYAMGWYRQAPGKLRELVAAITTGGSTFYRDSVKGRFTISRDNVANTVYLQMNSLKPEDTAVYHCNGAPWGDIAPVAVSWGQGTQVTVSS
notes: purified VHH
B12: 504#SS13 (Fc fusion, not shown: a dimerising Fc or GST; small tags and cut ends)
VHH: EVQVVESGGGSVQPGGSLRLSCAASGRGFTEHAMGWYRQSPGKEREFVAGISSGGSTYYADSVKGRFTVSRDSAGNTVALQMDSLKPEDTAVYYCSYKRGRYPDGVSTLEYWGQGTQVTVSS
notes: as for B3
B13: 504#SS5 (Fc fusion)
VHH: QVQLVESGGGSAQAGGSLRLSCTASGRPFSIYDMGWFRQAPGKERESVAVINLSRGNTYYADSVKGRFTISLDSAKNTVYLQMNSLKPEDTAVYSCGVDRRQYGLGIPPLADYWGQGTQVTVSS
notes: as for B6

Columns and labels:
BCMA on RPMI8226 cells = biological target: T1, BCMA on RPMI8226 cells; experiment: FACS on RPMI8226 cells
BCMA-Fc = biological target: T2, BCMA-Fc; experiment: ELISA, BCMA-Fc coated 1 ug/mL
Anti-His = biological target: T4, Anti-His; experiment: ELISA, Anti-His coated 1 ug/mL
T4 construct: ELISA coating control

[1] = biological target: T5, EGFR on 293T-EGFR cells (293T cells negative for BCMA expression) (UniProt P00533 25-1210, limits assumed); experiment: FACS on 293T-EGFR cells (BCMA negative)
T5 construct: whole, on cells; negative control cells; that they carry EGFR is read from the label only

[2] = biological target: T5, EGFR on 293T-EGFR cells (293T cells …); experiment: flow cytometry
BCMA-His = biological target: T3, BCMA-His; experiment: ELISA, BCMA-His coated 1 ug/mL
human IgG = biological target: T6, human IgG; experiment: ELISA, human IgG coated 1 ug/mL
T6 construct: ELISA coating control

PD-1 protein [3] = biological target: T7, PD-1 protein (human, UniProt Q15116 25-167, limits assumed); experiment: blocking ELISA, PD-1 coated, competitor biotin PD-L1
T7 construct: also called human PD-1
T7 sequence (Q15116 25-167 limits assumed): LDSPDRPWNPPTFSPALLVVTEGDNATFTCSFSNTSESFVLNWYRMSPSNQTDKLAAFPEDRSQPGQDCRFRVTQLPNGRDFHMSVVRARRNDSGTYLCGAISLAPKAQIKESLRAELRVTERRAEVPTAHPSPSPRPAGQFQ
Method: Each well of 96-well microtiter plates is coated with 2 μg/ml of PD-1 protein in PBS and blocked with 1% BSA. […]
The intensity of the developed color is measured at 450 nm. Wells with no added PD-1 and no added VHH-FC are negative and positive controls, respectively.

PD-1 protein [4] = biological target: T7, PD-1 protein; experiment: ELISA, PD-1 coated
Method: 2 μg/ml of PD-1 protein is coated on 96-well plates overnight for ELISA binding assay. Recombinant VHH-FC proteins are added to the wells and allowed to stand for a period of time, then 1 μg/ml of HRP-conjugated anti-FC antibody is added as detection antibody and the assay reagents are added. The absorbance is read at 450 nm. Binding of nivolumab serves as a positive control and plates coated with BSA are used as the negative control group.

Row | Binder | MFI (BCMA on RPMI8226 cells) | OD450 (BCMA-Fc) | OD450 (Anti-His) | MFI [1] | binding result [2] | OD450 (BCMA-His) | OD450 (human IgG) | OD450 of PD-L1 bound, antibody at 0.15 µg/mL (PD-1 protein [3]) | OD450 of PD-L1 bound, antibody at 0.61 µg/mL (PD-1 protein [3]) | OD450 of PD-L1 bound, antibody at 2.42 µg/mL (PD-1 protein [3]) | OD450 of PD-L1 bound, antibody at 9.75 µg/mL (PD-1 protein [3]) | OD450 at 0.002 µg/mL (PD-1 protein [4]) | OD450 at 0.02 µg/mL (PD-1 protein [4]) | OD450 at 0.2 µg/mL (PD-1 protein [4]) | OD450 at 2 µg/mL (PD-1 protein [4])
1 | B1 | 1260 MFI | 2.35 OD450 | 0.57 OD450 | 222 MFI | no binding | 2.32 OD450 | 0.02 OD450 |  |  |  |  |  |  |  | 
2 | B2 | 864 MFI | 2.52 OD450 | 1.96 OD450 | 216 MFI | no binding | 2.25 OD450 | 0.03 OD450 |  |  |  |  |  |  |  | 
3 | B3 |  |  |  |  |  |  |  | 3.22 OD450 | 3.2 OD450 | 3.27 OD450 | 3.28 OD450 | 0.03 OD450 | 0.03 OD450 | 0.04 OD450 | 0.07 OD450
4 | B4 | 2420 MFI | 2.47 OD450 | 2.1 OD450 | 230 MFI | no binding | 2.37 OD450 | 0.03 OD450 |  |  |  |  |  |  |  | 
5 | B5 | 1810 MFI | 2.47 OD450 | 1.79 OD450 | 219 MFI | no binding | 2.27 OD450 | 0.01 OD450 |  |  |  |  |  |  |  | 
6 | B6 |  |  |  |  |  |  |  | 3.42 OD450 | 3.36 OD450 | 3.46 OD450 | 3.32 OD450 | 0.03 OD450 | 0.03 OD450 | 0.03 OD450 | 0.04 OD450
7 | B7 |  |  |  |  |  |  |  | 3.27 OD450 | 3.28 OD450 | 3.33 OD450 | 3.27 OD450 | 0.03 OD450 | 0.03 OD450 | 0.03 OD450 | 0.04 OD450
8 | B8 |  |  |  |  |  |  |  | 3.32 OD450 | 3.35 OD450 | 3.31 OD450 | 3.26 OD450 | 0.03 OD450 | 0.05 OD450 | 0.24 OD450 | 1.07 OD450
9 | B9 |  |  |  |  |  |  |  | 3.27 OD450 | 3.24 OD450 | 3.28 OD450 | 3.32 OD450 | 0.03 OD450 | 0.03 OD450 | 0.03 OD450 | 0.04 OD450
10 | B10 | 764 MFI | 3.12 OD450 | 0.71 OD450 | 222 MFI | no binding | 2.28 OD450 | 0.03 OD450 |  |  |  |  |  |  |  | 
11 | B11 | 2550 MFI | 2.53 OD450 | 2.44 OD450 | 227 MFI | no binding | 2.37 OD450 | 0.03 OD450 |  |  |  |  |  |  |  | 
12 | B12 |  |  |  |  |  |  |  | 3.34 OD450 | 3.33 OD450 | 3.29 OD450 | 3.33 OD450 | 0.03 OD450 | 0.03 OD450 | 0.03 OD450 | 0.03 OD450
13 | B13 |  |  |  |  |  |  |  | 3.18 OD450 | 1.65 OD450 | 0.14 OD450 | 0.08 OD450 | 1.56 OD450 | 2.79 OD450 | 3.18 OD450 | 3.06 OD450
